# B1: eSrtA(4S-9): P94R, N98D, S102C, A104V, A118T, F122A, K134R, F144L, D160N, D165A, I182V, E189F, K190E, K196T (protein)
# chain: QAKPQIPKDKSKVAGYIEIPDADIKEPVYPGPATREQLDRGVCFVEENESLDDQNISITGHTAIDRPNYQFTNLRAAKKGSMVYLKVGNETRKYKMTSIRNVKPTAVEVLDEQKGKDKQLTLVTCDDYNFETGVWETRKIFVATEVK
# B2: eSrtA(2A-9): P94R, S102C, A104H, E105D, K138P, K152I, N160K, K162H, T164N, D165A, K173E, I182V, K190E, T196S (protein)
# chain: QAKPQIPKDKSKVAGYIEIPDADIKEPVYPGPATREQLNRGVCFHDENESLDDQNISIAGHTFIDRPNYQFTNLKAAKPGSMVYFKVGNETRIYKMTSIRKVHPNAVEVLDEQEGKDKQLTLVTCDDYNEETGVWESRKIFVATEVK
# How the values were obtained:
# Abz-LXEXGK(Dnp) peptides = test: Enzyme specificity assay (percent substrate conversion by HPLC); format: biochemical
# Method: (A, D) For each of eSrtA, eSrtA(2A-9), and eSrtA(4S-9), we incubated an activity matched quantity of enzyme (47.5 nM eSrtA, 450 nM eSrtA(2A-9), 115 nM eSrtA(4S-9)) with 10 μM Abz-LXEXGK(Dnp) (SEQ ID NO: 33) and 100 mM Gly-Gly-Gly peptide as listed for 15 minutes. Percent substrate conversion was monitored by reverse phase HPLC analysis and UV absorbance at 355 nm. […] LPEXG: SEQ ID NO: 34.
# Assays to determine eSrtA, eSrtA(2A-9) and eSrtA(4S-9) specificity were performed by preparing 10 μM stocks of Abz-LXEXGK(Dnp) (SEQ ID NO: 75) peptides in 300 mM Tris pH 7.5, 150 mM NaCl, 5 mM CaCl2, 5% v/v DMSO, and 100 mM Gly-Gly-Gly-COOH (GGG). Reactions were performed by adding eSrtA(2A-9) to a final concentration of 450 nM, eSrtA(4S-9) to a final concentration of 115 nM or eSrtA to a final concentration of 47.5 nM and a final volume of 100 μL, then incubating at 22.5° C. for 15 minutes. Reactions were quenched by the addition of 0.2 volumes of 5 M HCl, then were injected onto an analytical reverse-phase Eclipse XDB-C18 HPLC column (4.6×150 mm, 5 μm, Agilent Technologies) and chromatographed using a gradient of 10 to 65% acetonitrile with 0.1% TFA in 0.1% aqueous TFA over 13 minutes. Retention times under these conditions for the Abz-LPETGK(Dnp)-CONH2 (SEQ ID NO: 19) substrate, the released GKDnp peptide, and the Abz-LPETGGG-COOH (SEQ ID NO: 20) product were 12.8, 10.4, and 9.1 min, respectively, while the remaining Abz-LXEXGK(Dnp)-CONH2 (SEQ ID NO: 74) substrates varied in retention time between 9 and 13 minutes. To calculate the percent conversion, the ratio of the integrated areas of the GK(Dnp)-CONH2 and Abz-LPETGK(Dnp)-CONH2 (SEQ ID NO: 19) peptide Abs355 peaks were compared directly. Subsequent determination of kcat/Km and KH were performed as described for in vitro SrtA characterization.
# [1] = tested on: GGG-functionalized amphiphilic diblock polypeptide; test: GGG-diblock functionalization; format: biochemical; conditions: Alexa Fluor 488-LAETG or 647-LPESG, 1 hour
# Chain of GGG-functionalized amphiphilic diblock polypeptide (as listed by the source): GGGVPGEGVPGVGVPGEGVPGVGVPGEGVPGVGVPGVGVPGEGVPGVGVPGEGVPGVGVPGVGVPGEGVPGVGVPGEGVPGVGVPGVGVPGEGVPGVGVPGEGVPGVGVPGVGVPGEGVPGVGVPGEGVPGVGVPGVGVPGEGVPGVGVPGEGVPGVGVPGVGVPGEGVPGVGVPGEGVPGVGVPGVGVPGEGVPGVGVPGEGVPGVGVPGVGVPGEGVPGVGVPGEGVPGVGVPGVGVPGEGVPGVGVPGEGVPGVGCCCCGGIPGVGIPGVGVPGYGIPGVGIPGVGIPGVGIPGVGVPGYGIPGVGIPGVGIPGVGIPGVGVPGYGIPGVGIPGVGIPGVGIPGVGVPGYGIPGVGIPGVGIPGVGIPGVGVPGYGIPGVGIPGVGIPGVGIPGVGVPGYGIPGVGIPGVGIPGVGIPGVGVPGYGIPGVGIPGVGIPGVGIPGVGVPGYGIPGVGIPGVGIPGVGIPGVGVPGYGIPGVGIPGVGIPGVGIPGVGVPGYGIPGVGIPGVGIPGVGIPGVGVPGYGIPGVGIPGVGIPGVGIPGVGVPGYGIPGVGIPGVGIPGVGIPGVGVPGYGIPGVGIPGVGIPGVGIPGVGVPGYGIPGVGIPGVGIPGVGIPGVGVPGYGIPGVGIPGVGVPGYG
# Method: Amphiphilic diblock polypeptide (Diblock) was co-incubated with Alexa Fluor® 488-LAETG (SEQ ID NO: 5), Alexa Fluor® 647-LPESG (SEQ ID NO: 3), eSrtA(2A-9), and/or eSrtA(4S-9). The reactions were analyzed by denaturing gel electrophoresis and visualized using either Coomassie stain (top), 488 fluorescence (bottom, blue), or 647 fluorescence (bottom, red). Magenta denotes the overlap of blue and red fluorescence signals.
# GGG-functionalized recombinant amphiphilic diblock polypeptide (Diblock), GGG-Diblock, was used as a substrate to test the orthogonality of the two evolved sortases in solution. GGG-Diblock based on elastin-mimetic polypeptide sequences was prepared as previously described (Kim et al. Self-Assembly of Thermally Responsive Amphiphilic Diblock Copolypeptides into Spherical Micellar Nanoparticles. Angewandte Chemie International Edition 49, 4257-4260, doi:10.1002/anie.201001356 (2010)) with slight changes in sequence by genetically incorporating an N-terminal triglycine motif. A complete amine acid sequence is GGG-VPGEG-[(VPGVG)(VPGEG)(VPGVG)(VPGEG)(VPGVG)]10-CCCCGG-[(IPGVG)2VPGYG(IPGVG)2]15-VPGYG (SEQ ID NO: 75). In a 0.6 mL Eppendorf tube, GGG-functionalized Diblock (10 μM) was mixed with fluorophore-peptide (0.1 μM), evolved sortase (15 μM) and CaCl2 (100 mM), then reacted for 1 hour at room temperature. […]
molecule,measurement,setting,value
B1,difference in transpeptidation of LPESG over LPETG,"Abz-LXEXGK(Dnp) peptides; FIG. 20A, 10 μM peptide, 100 mM GGG, 15 minutes",approximately 40 fold
same,"activity on the substrates LPEAG, LPECG and LPESG","Abz-LXEXGK(Dnp) peptides; position 4 substrate profile, FIGS. 20A-B",significant activity
same,peptide-diblock conjugation,[1],no detectable off-target substrate conjugation
B2,"reduced activity on the next most active substrates, LSETG and LRETG, versus LAETG","Abz-LXEXGK(Dnp) peptides; position 2 substrate profile, FIG. 20E",> 20 fold
same,peptide-diblock conjugation,[1],no detectable off-target substrate conjugation
